Measurements taken from patent publication US5563039, “TNF receptor-associated intracellular signaling proteins and methods of use” (Tularik, Inc., dated 1996).

B1: GAL4ad-TRADD (GAL4 activation domain fused to full length TRADD) (other)
chain: MAAGQNGHEEWVGSAYLFVESSLDKVVLSDAYAHPQQKVAVYRALQAALAESGGSPDVLQMLKIHRSDPQLIVQLRFCGRQPCGRFLRAYREGALRAALQRSLAAALAQHSVPLQLELRAGAERLDALLADEERCLSCILAQQPDRLRDEELAELEDALRNLKCGSGARGGDGEVASAPLQPPVPSLSEVKPPPPPPPAQTFLFQGQPVVNRPLSLKDQQTFARSVGLKWRKVGRSLQRGCRALRDPALDSLAYEYEREGLYEQAFQLLRRFVQAEGRRATLQRLVEALEENELTSLAEDLLGLTDPNGGLA
B2: 35S-labeled TRADD prepared by in vitro transcription and translation (other)
chain: B1 chain
modifications: 35S-labeled

Tests used:
[1] = target: cytoplasmic domain of Fas antigen expressed as GAL4bd chimera (yeast, UniProt P04386); test: yeast two-hybrid, strain SFY526
[2] = target: GST fusion protein containing the cytoplasmic domain of Fas antigen (Homo sapiens (Human), UniProt P25445); test: GST pull-down of 35S-labeled TRADD

Row | Binder | binding result [1] | binding result [2]
1 | B1 | no binding | 
2 | B2 |  | no binding
